Measurements taken from patent publication US20110223630A1, “METHOD FOR SCREENING FOR COMPOUNDS THAT INHIBIT NEURODEGENERATION” (priority 2008, published 2011).

Tests used:
Assay in all cases: Cell-based AP binding assay on transfected COS-1 cells
DR6 receptor = molecular target: T1, DR6 receptor (Homo sapiens, UniProt O75509); conditions: same conditions as APP
T1 construct: expressed in transfected cells; host or cells: COS-1
T1 sequence (O75509 42-655): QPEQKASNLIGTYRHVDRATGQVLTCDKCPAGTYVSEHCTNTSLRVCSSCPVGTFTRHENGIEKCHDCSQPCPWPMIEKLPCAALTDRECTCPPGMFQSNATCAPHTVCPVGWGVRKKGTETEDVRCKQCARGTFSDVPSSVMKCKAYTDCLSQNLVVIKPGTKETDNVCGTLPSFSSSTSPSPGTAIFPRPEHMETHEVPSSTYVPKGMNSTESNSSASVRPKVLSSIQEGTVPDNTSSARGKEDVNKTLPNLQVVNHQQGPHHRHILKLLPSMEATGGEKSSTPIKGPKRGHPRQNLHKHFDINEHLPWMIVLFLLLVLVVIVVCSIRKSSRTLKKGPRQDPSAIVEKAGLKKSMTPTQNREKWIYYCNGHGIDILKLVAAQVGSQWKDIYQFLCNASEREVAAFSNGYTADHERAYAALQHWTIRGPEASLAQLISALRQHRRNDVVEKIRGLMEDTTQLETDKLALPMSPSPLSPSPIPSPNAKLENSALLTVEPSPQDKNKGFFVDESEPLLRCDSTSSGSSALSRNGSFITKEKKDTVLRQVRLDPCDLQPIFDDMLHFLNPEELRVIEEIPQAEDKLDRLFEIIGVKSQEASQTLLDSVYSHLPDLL
Experimental: (§1) The materials and methods used to generate the data shown in this figure are as follows. To test whether APP directly interacts with DR6 extracellular domain, a cell-based A binding assay was carried out (FIG. 14B). To generate DR6 ectodomain-A fusion protein (DR6-AP), COS-1 cells cultured in DMEM/10% FBS (Gibco) medium were transfected with 15 microgram of DR6-AP fusion expression construct using FuGene transfection reagent (Roche) according to the manufacturer protocol. Twelve hours post-transfection, COS-1 cell medium was changed to OPTI-MEM (Invitrogen). Forty-eight hours post-transfection, COS-1 cell conditioned medium containing DR6-AP proteins was collected and filtered. The amount of DR6-AP proteins in the medium was quantified according to the following procedure. 100 microliters of 2×AP buffer (prepared by adding 100 mg Para-nitrophenyl phosphate (Sigma) and 15 microliter of 1M MgCl2 to 15 ml 2M diethanolamine pH 9.8) was mixed with equal volume of transfected COS cell conditioned medium or control conditioned medium from untransfected COS-1 cells. The color of the reaction was developed over 12-15 minutes, with the O.D. being in the linear range (0.1-1). The volume of reaction was then adjusted by adding 800 microliters of distilled water and the O.D. was measured at 405 nm absorbance wavelength. The concentration in nM was calculated according to the formula (for 100 microliter): C (nM)=O.D.×100×(60/developing time)/30. For the APP AP binding assay, COS-1 cells cultured in DMEM/10% FBS (Gibco) medium in 6-well culture dishes were transfected with 2 microgram of APP expressing vector per well using FuGene transfection reagent (Roche) according to the manufacturer protocol. Two days post-transfection, cells were washed twice with the binding buffer (HBSS, Gibco Cat. No. 14175-095, with 0.2% BSA, 0.1% NaN3, 5 mM CaCl2, 1 mM MgCl2, 20 mM HEPES, pH=7.0). […]

p75NTR = molecular target: T2, p75NTR (Homo sapiens, UniProt P08138); conditions: same conditions as APP
T2 construct: expressed in transfected cells; host or cells: COS-1
T2 sequence (P08138 29-427): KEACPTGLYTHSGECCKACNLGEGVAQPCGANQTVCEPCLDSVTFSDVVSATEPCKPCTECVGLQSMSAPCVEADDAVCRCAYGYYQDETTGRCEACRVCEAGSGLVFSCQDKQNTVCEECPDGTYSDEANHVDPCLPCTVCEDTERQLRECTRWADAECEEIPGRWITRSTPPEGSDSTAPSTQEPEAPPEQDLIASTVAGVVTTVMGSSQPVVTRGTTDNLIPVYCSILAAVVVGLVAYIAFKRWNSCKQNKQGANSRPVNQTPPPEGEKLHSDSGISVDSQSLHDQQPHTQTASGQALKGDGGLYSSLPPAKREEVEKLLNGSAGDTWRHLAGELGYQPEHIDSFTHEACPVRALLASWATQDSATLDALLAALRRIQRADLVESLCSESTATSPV
Experimental: as §1

APP = molecular target: T3, APP (Homo sapiens, UniProt P05067); conditions: DR6-AP conditioned medium 1:1 with binding buffer, 90 minutes
T3 construct: expressed in transfected cells; host or cells: COS-1
Experimental: as §1

T3 sequence (P05067 18-770): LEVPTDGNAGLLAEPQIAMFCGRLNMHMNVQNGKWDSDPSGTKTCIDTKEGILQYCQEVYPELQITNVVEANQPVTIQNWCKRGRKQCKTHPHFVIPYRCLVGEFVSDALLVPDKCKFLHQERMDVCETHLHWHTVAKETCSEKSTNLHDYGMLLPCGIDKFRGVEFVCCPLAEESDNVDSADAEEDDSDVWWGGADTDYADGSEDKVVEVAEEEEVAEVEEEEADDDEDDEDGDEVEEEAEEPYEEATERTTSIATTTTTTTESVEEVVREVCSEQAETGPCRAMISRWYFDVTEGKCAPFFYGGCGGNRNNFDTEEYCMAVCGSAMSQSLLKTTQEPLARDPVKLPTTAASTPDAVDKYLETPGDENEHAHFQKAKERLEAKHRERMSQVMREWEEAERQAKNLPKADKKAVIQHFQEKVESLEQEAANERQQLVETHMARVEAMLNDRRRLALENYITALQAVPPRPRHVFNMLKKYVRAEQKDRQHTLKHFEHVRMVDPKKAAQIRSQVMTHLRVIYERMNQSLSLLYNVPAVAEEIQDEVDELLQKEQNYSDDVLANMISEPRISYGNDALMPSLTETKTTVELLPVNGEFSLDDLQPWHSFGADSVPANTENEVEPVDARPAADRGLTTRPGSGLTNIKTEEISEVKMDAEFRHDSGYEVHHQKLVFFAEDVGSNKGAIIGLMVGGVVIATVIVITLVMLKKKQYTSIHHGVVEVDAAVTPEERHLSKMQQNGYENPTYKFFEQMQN

B1: DR6-AP: mouse DR6 ectodomain fused to human placental alkaline phosphatase (protein)
chain: QPEQKTLSLPGTYRHVDRTTGQVLTCDKCPAGTYVSEHCTNMSLRVCSSCPAGTFTRHENGIERCHDCSQPCPWPMIERLPCAALTDRECICPPGMYQSNGTCAPHTVCPVGWGVRKKGTENEDVRCKQCARGTFSDVPSSVMKCKAHTDCLGQNLEVVKPGTKETDNVCGMRLFFSSTNPPSSGTVTFSHPEHMESHDVPSSTYEPQGMNSTDSNSTASVRTKVPSGIEEGTVPDNTSSTSGKEGTNRTLPNPPQVTHQQAPHHRHILKLLPSSMEATGEKSSTAIKAPKRGHPRQNAHKHFDINEH
modifications: left off: large carriers
notes: mouse DR6 ectodomain fused to human placental alkaline phosphatase
Question: B1 was tested. Which “binding of DR6 ectodomain-AP to DR6 receptor expressing cells” value (DR6 receptor) did it give?
Answer: The value was “does NOT bind”.

Question: What about the “binding of DR6 ectodomain-AP to p75NTR expressing cells” value (p75NTR) of the same molecule?
Answer: Its value is “does NOT bind”.

Question: What about the “binding of DR6 ectodomain-AP to APP expressing COS cells” value (APP) of the same molecule?
Answer: Its value is “binds APP expressed by cultured cells”.
